The labels stand for the following.
B1: GST-NT (recombinant GST-fused girdin NT) (domain or fragment, human, UniProt Q3V6T2 1-256, looked up)
chain: MENEIFTPLLEQFMTSPLVTWVKTFGPLAAGNGTNLDEYVALVDGVFLNQVMLQINPKLESQRVNKKVNNDASLRMHNLSILVRQIKFYYQETLQQLIMMSLPNVLIIGKNPFSEQGTEEVKKLLLLLLGCAVQCQKKEEFIERIQGLDFDTKAAVAAHIQEVTHNQENVFDLQWMEVTDMSQEDIEPLLKNMALHLKRLIDERDEHSETIIELSEERDGLHFLPHASSSAQSPCGSPGMKRTESRQHLSVELADA

Ends that are not written are not given here.

Test [1] has as its target B1. In words: in vitro binding assay.
The target in test [2] is EGFRc-His (EGFR cytoplasmic domain, 669-1210) (UniProt P00533 669-1210). Briefly: pull-down.

Data on 2 molecules can be found in paper PMC4195775 (The EMBO Journal, 2014).

In the case of KLLMIIHDRREFAKFEKEKMNAKWDTGENPIYKSAVTTVVNPKYEGK (domain or fragment, UniProt P05556 752-798, looked up, also: His tag, position and length not given here) [ITGB1c-His (integrin β1 cytoplasmic domain, 752-798)], the binding result in test [1] was “binds”.

On to B1, for which, in test [2], the binding result is given as “binds”.
